Tests used:
[1] = tested on: SARS CoV-2 "South African" B.1.351 variant Spike protein
[2] = tested on: pseudotyped virus carrying B.1.351 or "SA" variant (beta lineage) spike; format: cell-based, SARS-CoV-2; conditions: read-out: Virus Neutralization Pseudovirus (nM) Beta

Row | Sequence | stability conferred to the knob sequence by N- and C-terminal residues, in words [1] | EC50 [2] [nM]
1 | DYTCPDGYEHTCGCIGGCGCKRSACIGALCCQASLGGWLSDMP [G3-C] | improved stability | 
2 | GMTCPDGYEHTCGCIGGCGCKRSACIGALCCQASLGGWLSDRS [G3-Z] | improved stability | 
3 | HWTCPDGYEHTCGCIGGCGCKRSACIGALCCQASLGGWLSDSF [2G3 knob HWSF] | improved stability | 7.82 ± 1.59
4 | ISTCPDGYEHTCGCIGGCGCKRSACIGALCCQASLGGWLSDTV [2G3 knob ISTV] | improved stability | 20.9 ± 7.95
5 | LVTCPDGYEHTCGCIGGCGCKRSACIGALCCQASLGGWLSDIP [G3-G] | improved stability | 
6 | SVTCPDGYEHTCGCIGGCGCKRSACIGALCCQASLGGWLSDYI [G3-E] | improved stability | 
7 | TCPDGYEHTCGCIGGCGCKRSACIGALCCQASLGGWLSD [2G3 Knob] |  | 15.7 ± 2.61

— patent US20260184766A1 (priority 2022, published 2026)
